Test results published in IntAct's records for PubMed 24469399.

B1: NF-kappa-B essential modulator (Mus musculus), O88522 (parent)
chain: MNKHPWKNQLSEMVQPSGGPAEDQDMLGEESSLGKPAMLHLPSEQGTPETLQRCLEENQELRDAIRQSNQMLRERCEELLHFQVSQREEKEFLMCKFQEARKLVERLSLEKLDLRSQREQALKELEQLKKCQQQMAEDKASVKAQVTSLLGELQESQSRLEAATKDRQALEGRIRAVSEQVRQLESEREVLQQQHSVQVDQLRMQNQSVEAALRMERQAASEEKRKLAQLQAAYHQLFQDYDSHIKSSKGMQLEDLRQQLQQAEEALVAKQELIDKLKEEAEQHKIVMETVPVLKAQADIYKADFQAERHAREKLVEKKEYLQEQLEQLQREFNKLKVGCHESARIEDMRKRHVETPQPPLLPAPAHHSFHLALSNQRRSPPEEPPDFCCPKCQYQAPDMDTLQIHVMECIE

Variants of: B1
Details: with rnf31_mouse Rnf31, Q924T7
Chain of rnf31_mouse Rnf31, Q924T7 (Q924T7 whole entry): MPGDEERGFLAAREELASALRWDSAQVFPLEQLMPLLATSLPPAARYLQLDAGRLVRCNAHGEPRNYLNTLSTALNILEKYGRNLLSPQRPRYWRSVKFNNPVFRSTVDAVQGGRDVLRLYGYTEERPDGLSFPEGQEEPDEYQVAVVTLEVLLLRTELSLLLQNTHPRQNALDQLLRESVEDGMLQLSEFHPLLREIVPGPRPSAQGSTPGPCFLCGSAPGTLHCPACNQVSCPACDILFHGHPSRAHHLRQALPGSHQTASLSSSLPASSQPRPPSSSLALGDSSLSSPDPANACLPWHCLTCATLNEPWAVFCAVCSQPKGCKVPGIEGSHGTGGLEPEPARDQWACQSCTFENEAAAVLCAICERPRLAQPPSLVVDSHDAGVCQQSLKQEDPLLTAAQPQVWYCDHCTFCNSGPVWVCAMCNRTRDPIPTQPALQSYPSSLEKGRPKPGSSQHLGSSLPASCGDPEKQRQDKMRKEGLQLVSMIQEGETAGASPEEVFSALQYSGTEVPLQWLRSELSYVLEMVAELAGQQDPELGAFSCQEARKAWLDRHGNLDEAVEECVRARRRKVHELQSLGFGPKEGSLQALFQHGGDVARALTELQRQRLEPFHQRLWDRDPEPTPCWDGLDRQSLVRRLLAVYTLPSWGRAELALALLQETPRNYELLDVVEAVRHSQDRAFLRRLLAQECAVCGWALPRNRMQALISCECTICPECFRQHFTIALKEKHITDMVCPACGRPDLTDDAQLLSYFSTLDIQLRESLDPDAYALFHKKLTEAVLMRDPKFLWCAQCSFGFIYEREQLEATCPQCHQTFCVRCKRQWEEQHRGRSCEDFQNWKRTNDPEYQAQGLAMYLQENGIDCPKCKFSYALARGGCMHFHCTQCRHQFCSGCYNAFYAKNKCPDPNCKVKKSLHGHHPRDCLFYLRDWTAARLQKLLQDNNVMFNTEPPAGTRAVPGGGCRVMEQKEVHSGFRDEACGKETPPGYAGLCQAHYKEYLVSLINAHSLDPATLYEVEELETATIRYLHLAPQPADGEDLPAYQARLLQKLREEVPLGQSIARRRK

Variant	effect of a mutation on the interaction
Q271A	disrupting interaction

Variants of: B1
Details: with rnf31_mouse Rnf31, Q924T7
Remark: another data set of the same source

Variant	effect of a mutation on the interaction
Q271A;D275A	disrupting interaction

Variants of: B1
Details: with rnf31_mouse Rnf31, Q924T7
Remark: another data set of the same source

Variant	effect of a mutation on the interaction
D275A	disrupting interaction
